Assay results published in patent publication US20200231684A1 (published 2020).

Columns and labels:
[1] = target: T1, recombinant human IL-36R (ECD) (human, UniProt Q9HB29 20-332); test: SPR (ProteOn), single IL-36R surface coat concentration
T1 construct: range 20-332; also called IL-1RL2; IL-1Rrp2
T1 sequence (looked up): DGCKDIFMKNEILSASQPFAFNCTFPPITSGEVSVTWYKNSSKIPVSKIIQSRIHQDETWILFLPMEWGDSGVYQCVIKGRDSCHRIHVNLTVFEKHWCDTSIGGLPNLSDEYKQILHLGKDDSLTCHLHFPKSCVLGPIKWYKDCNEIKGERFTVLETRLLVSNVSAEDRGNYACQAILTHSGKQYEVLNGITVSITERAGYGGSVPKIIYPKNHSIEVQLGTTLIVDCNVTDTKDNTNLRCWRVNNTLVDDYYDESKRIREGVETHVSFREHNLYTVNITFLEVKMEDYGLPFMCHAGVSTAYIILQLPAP
Procedure: A) Kinetics and binding affinities of anti-IL-36R antibodies binding to recombinant human IL-36R were measured using the Proteon (Bio-Rad, Hercules, Calif.) using material generated from hybridoma following single column purification. […] Binding of the chimeric anti-IL36R IgGs is equivalent to the respective mouse leads.

[2] = target: T2, human IL-36R on cells (human, UniProt Q9HB29 20-575); test: cell-based or functional assay
T2 sequence (looked up): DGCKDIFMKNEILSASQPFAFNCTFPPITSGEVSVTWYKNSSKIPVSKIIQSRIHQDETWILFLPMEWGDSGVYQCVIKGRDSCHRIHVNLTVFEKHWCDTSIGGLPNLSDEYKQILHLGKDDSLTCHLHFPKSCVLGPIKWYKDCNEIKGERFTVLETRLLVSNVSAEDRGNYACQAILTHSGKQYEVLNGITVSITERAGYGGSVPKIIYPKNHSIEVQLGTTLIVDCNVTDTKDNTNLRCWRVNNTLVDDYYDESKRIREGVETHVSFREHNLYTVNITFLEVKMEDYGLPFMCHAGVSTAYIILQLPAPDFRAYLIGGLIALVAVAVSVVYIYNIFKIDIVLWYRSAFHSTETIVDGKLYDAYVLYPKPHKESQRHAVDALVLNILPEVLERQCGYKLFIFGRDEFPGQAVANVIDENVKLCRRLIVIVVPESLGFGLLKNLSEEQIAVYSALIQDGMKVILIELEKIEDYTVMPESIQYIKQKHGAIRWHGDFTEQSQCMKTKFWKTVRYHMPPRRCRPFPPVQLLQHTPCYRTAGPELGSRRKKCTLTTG

[3] = target: T2, human IL-36R on cells; test: flow cytometry, HEK293 cells transfected with full-length human IL-36R
Procedure: HEK293 cells transfected with full-length human IL-36R or NCI/ADR-RES cells were passaged for 24 hours prior to staining. Cells were removed from flasks by rinsing with 10 ml of 5 mM EDTA in PBS, and then incubated at 37° C. for 10 min with an additional 10 ml of 5 mM EDTA and 2.5 ml of Accumax to declump/disperse cells. Antibodies were then diluted to specified concentrations in PBS+2% BSA, and cells incubated for 20 min at room temperature. Excess antibody was then washed by adding 200 μl of PBS and then centrifuged. Secondary reagent was then added at 50 μl per well and cells are incubated for 15 min at room temperature and then washed as above. Cells were resuspended in 200 μl PBS and analyzed by flow cytometry.

[4] = target: T1, recombinant human IL-36R (ECD); test: SPR (ProteOn), recombinant human IL-36R at 7 surface densities, global fit
Procedure: A) Kinetics and binding affinities of anti-IL-36R antibodies binding to recombinant human IL-36R were measured using the Proteon (Bio-Rad, Hercules, Calif.) using material generated from hybridoma following single column purification. […] The binding affinities of the mouse antibodies to human IL-36R run at 7 different surface densities (globally fit) is shown in Table 1. Binding of the chimeric anti-IL36R IgGs is equivalent to the respective mouse leads.

[5] = target: T3, mouse IL-36R (mouse, UniProt Q9ERS7 22-338); test: BLI (Fortebio Octet), antibody injected over antigen surface
T3 sequence (looked up): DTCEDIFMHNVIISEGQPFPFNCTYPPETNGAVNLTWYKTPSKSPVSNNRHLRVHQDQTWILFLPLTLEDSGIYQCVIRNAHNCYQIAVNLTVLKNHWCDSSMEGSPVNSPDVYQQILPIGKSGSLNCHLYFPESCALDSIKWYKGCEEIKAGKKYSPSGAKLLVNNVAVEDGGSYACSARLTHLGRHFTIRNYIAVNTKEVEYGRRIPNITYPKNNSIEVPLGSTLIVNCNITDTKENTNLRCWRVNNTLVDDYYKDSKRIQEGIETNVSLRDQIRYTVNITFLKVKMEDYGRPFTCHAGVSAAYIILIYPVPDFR
Procedure: (§1) B) Molecular selectivity over mouse IL-36R and human IL-1R1 The mouse and chimeric anti-IL-36R antibodies were also injected over either a mouse IL-36R or a human IL-1R1 surface at a concentration of 100 nM. The binding signal to mouse IL-36R and to human IL-1R1 for these antibodies measured using the Fortebio Octet (Fortebio, Menlo Park, Calif.) is zero, which indicates these antibodies selectively bind to human IL-36R.

[6] = target: T4, human IL-1R1 (human, UniProt P14778 18-336, limits assumed); test: as above
T4 construct: also called IL-1RI
T4 sequence (looked up): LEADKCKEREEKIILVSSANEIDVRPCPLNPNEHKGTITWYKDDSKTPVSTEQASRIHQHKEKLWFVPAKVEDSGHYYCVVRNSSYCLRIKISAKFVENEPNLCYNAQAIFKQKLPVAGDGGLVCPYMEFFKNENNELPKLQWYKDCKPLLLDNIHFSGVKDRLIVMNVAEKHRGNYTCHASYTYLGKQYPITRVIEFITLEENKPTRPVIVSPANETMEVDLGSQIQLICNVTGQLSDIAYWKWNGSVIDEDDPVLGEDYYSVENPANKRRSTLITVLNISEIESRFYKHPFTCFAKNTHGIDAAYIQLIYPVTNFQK
Procedure: as §1

[7] = target: cynomolgus IL-36R on BaF/3 cells (cynomolgus, UniProt A0A2K5WSK9 20-558); test: cell-based or functional assay
[8] = target: T2, human IL-36R on cells; test: cell-based or functional assay; remark: listed apart in the source

Sequence of cynomolgus IL-36R on BaF/3 cells (A0A2K5WSK9 entry or part of it): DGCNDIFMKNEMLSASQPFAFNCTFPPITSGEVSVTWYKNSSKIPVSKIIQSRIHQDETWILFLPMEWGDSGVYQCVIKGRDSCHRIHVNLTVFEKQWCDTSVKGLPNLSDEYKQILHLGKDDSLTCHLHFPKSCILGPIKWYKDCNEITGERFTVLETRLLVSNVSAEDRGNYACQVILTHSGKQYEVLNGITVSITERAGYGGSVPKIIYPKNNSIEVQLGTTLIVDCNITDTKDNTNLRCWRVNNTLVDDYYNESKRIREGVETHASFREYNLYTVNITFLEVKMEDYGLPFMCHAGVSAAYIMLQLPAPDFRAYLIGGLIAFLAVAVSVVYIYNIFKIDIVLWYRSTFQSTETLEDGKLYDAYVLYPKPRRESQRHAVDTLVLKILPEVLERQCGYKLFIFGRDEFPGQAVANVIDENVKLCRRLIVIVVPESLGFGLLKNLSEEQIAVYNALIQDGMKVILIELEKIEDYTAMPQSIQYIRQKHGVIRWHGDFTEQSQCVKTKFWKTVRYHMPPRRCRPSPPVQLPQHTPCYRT

- Kd [1]: < 0.1 nM
- IC90, IL-8 release, human primary keratinocytes (NHK), trun-IL-36a [2]: 17.8 nM
- IC90, IL-8 release, human primary keratinocytes (NHK), trun-IL-36b [2]: 26 nM
- IC90, IL-8 release, human primary keratinocytes (NHK), trun-IL-36g [2]: 2.1 nM
- IC90, pNFκB, human primary keratinocytes (NHK), trun-IL-36a [2]: 8.2 nM
- IC90, pNFκB, human primary keratinocytes (NHK), trun-IL-36b [2]: 5.2 nM
- IC90, pNFκB, human primary keratinocytes (NHK), trun-IL-36g [2]: 1.3 nM
- EC50 [3]: 0.746 nM
- Kd [4]: 0.025 nM
- binding result [5]: no binding (tested: 100 nM)
- binding result [6]: no binding (tested: 100 nM)
- IC90, pNFκB, BaF/3 cynomolgus IL-36R cells, trun-IL-36a [7]: 0.5 nM
- IC90, pNFκB, BaF/3 cynomolgus IL-36R cells, trun-IL-36b [7]: 0.7 nM
- IC90, pNFκB, BaF/3 cynomolgus IL-36R cells, trun-IL-36g [7]: 0.8 nM
- IC90, GM-CSF release, NCI/ADR-RES cells, trun-IL-36a [8]: 5.9 nM
- IC90, GM-CSF release, NCI/ADR-RES cells, trun-IL-36b [8]: 1.7 nM
- IC90, GM-CSF release, NCI/ADR-RES cells, trun-IL-36g [8]: 1.4 nM
- IC90, IL-6 release, NCI/ADR-RES cells, trun-IL-36a [8]: 19 nM
- IC90, IL-6 release, NCI/ADR-RES cells, trun-IL-36b [8]: 5.1 nM
- IC90, IL-6 release, NCI/ADR-RES cells, trun-IL-36g [8]: 2.2 nM
- IC90, IL-8 release, NCI/ADR-RES cells, trun-IL-36a [8]: 3.2 nM
- IC90, IL-8 release, NCI/ADR-RES cells, trun-IL-36b [8]: 0.8 nM
- IC90, IL-8 release, NCI/ADR-RES cells, trun-IL-36g [8]: 0.9 nM
- IC90, pNFκB, NCI/ADR-RES cells, trun-IL-36a [8]: 2.8 nM
- IC90, pNFκB, NCI/ADR-RES cells, trun-IL-36b [8]: 3 nM
- IC90, pNFκB, NCI/ADR-RES cells, trun-IL-36g [8]: 1.5 nM
B1: antibody 73F6 (antibody, V domains shown)
VH: QVQLKESGPGLVAPSQSLSITCTVSGFSLTNYAVHWVRQFPGKGLEWLGVIWSDGSTDYNAPFKSRLSINKDNSKSQVFFKMNSLQTDDTAIYYCARKGGYSGSWFAYWGQGTLVTVSA
VL: DIVMTQSQKFLSTSVGVRVSVTCKASQDVGTNVLWYQQKIGQSPKALIYSASYRHSGVPDRFTGSGSGTDFTLIITNVQSEDLAEYFCQQYSRYPLTFGPGTKLELK
notes: Mouse monoclonal from hybridoma; also called 73F6F8; Mouse 73F6
